{"source": "patent US20100167357A1", "about": "(CELLECTIS, published 2010)", "key": {"[1]": {"target": "the molecule itself", "assay": "analytical ultracentrifugation of the individually expressed protein (monomer plus higher aggregates seen)", "procedure": "To check the oligomeric status of the purified designed enzymes, their size profiles was measured by analytical ultracentrifugation (FIG. 6). In the case of individually-expressed A1, A2, B3 and B4 proteins, the appearance of the expected monomeric enzyme was observed. However, higher molecular weight aggregates were also detected, including trimers and tetramers (FIG. 6B; only KTG-A2 and QAN-B3 are shown, although similar results were obtained with the other designs). Therefore the designed enzymes were indeed unable to homodimerise, and this may have affected their stability and aggregation properties during purification."}, "[2]": {"target": "T1, QAN-B3 (QAN with K7E, F54G, L58M, K96E), His tag removed, co-expressed from pCDFDuet1", "T1 chain": "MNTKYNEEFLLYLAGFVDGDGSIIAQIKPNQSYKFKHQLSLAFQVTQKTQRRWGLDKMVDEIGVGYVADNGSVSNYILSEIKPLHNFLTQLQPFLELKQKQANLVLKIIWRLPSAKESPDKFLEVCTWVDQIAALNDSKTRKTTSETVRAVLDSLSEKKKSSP"}, "[3]": {"target": "T2, M3 E8K K96E", "T2 chain": "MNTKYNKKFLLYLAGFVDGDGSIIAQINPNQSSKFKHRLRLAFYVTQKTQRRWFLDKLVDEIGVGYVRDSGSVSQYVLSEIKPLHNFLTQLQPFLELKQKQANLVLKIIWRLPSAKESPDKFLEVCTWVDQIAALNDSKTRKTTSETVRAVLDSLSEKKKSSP"}, "[4]": {"target": "T3, M3 K7E K96E", "T3 chain": "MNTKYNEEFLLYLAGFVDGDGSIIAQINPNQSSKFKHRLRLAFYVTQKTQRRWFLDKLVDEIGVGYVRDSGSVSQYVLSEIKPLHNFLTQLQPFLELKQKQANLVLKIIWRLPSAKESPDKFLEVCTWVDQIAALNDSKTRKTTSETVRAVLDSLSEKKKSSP"}, "[5]": {"target": "T4, M3 E8K E61R", "T4 chain": "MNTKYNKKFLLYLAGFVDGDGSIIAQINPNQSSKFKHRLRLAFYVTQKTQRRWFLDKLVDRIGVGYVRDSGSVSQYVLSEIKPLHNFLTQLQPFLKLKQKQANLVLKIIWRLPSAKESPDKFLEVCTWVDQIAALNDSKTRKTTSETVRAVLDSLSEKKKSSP"}, "[6]": {"target": "T5, M3 K7E E61R", "T5 chain": "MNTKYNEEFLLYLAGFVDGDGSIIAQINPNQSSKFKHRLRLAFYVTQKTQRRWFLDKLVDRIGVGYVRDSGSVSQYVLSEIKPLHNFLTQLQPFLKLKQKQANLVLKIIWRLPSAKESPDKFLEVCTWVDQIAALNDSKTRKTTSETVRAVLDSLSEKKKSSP"}, "[7]": {"target": "T6, KTG-B3 (KTG with the B3 interface: K7E, F54G, L58M, K96E)", "T6 chain": "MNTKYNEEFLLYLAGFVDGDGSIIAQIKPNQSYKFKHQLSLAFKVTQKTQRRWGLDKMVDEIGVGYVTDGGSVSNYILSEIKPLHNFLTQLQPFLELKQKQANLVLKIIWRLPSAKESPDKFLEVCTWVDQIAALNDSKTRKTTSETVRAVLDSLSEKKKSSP"}, "[8]": {"target": "T7, D137R RAG1.10.3 cutter (M3 D137R)", "T7 chain": "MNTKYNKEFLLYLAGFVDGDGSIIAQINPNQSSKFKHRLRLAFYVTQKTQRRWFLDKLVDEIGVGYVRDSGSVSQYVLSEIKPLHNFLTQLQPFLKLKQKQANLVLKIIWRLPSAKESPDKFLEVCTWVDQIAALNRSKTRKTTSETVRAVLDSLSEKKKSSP"}, "[9]": {"target": "T8, R51D RAG1.10.3 cutter (M3 R51D)", "T8 chain": "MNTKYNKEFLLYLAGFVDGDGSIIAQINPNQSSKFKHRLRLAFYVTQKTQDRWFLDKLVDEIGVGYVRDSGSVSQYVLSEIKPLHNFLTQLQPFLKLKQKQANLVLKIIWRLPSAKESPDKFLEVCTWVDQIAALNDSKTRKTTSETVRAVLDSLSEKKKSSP"}}, "data": [{"protein": "KTG-A2 (KTG with K7R, E8R, F54W, E61R, K96R, L97F) (enzyme, Designed monomer; Expressed with a His tag from pET-series plasmid pCLS1211) MNTKYNRRFLLYLAGFVDGDGSIIAQIKPNQSYKFKHQLSLAFKVTQKTQRRWWLDKLVDRIGVGYVTDGGSVSNYILSEIKPLHNFLTQLQPFLRFKQKQANLVLKIIWRLPSAKESPDKFLEVCTWVDQIAALNDSKTRKTTSETVRAVLDSLSEKKKSSP", "values": [{"measurement": "binding result", "setting": "[1]", "result": "no binding"}, {"measurement": "in vitro cleavage of linearized plasmid DNA targets (agarose gel)", "setting": "[2]", "result": "clear specific cleavage of the heterodimer DNA target (gtt/agg) and barely of the homodimeric targets (cct/agg and gtt/aac; FIG. 7A) was observed"}]}, {"protein": "QAN-B3 (QAN with K7E, F54G, L58M, K96E), individually expressed and purified (enzyme, Designed monomer; His-tagged form from pET-series plasmid pCLS1214, purified on a nickel column) MNTKYNEEFLLYLAGFVDGDGSIIAQIKPNQSYKFKHQLSLAFQVTQKTQRRWGLDKMVDEIGVGYVADNGSVSNYILSEIKPLHNFLTQLQPFLELKQKQANLVLKIIWRLPSAKESPDKFLEVCTWVDQIAALNDSKTRKTTSETVRAVLDSLSEKKKSSP", "values": [{"measurement": "binding result", "setting": "[1]", "result": "no binding"}]}, {"protein": "M2 K7E E61R (protein) MNTKYNEEFLLYLAGFVDGDGSIIAQIKPRQSNKFKHQLSLAFAVTQKTQRRWFLDKLVDRIGVGYVYDSGSVSDYRLSEIKPLHNFLTQLQPFLKLKQKQANLVLKIIWRLPSAKESPDKFLEVCTWVDQIAALNDSKTRKTTSETVRAVLDSLSEKKKSSP", "values": [{"measurement": "cleavage of the RAG1.10 target, yeast screening assay (OH1)", "setting": "[3]", "result": "They have a strong cleavage activity toward the RAG1.10 target equivalent to the M2/M3 heterodimer activity, while they display almost non detectable homodimeric activities."}]}, {"protein": "M2 E8K E61R (protein) MNTKYNKKFLLYLAGFVDGDGSIIAQIKPRQSNKFKHQLSLAFAVTQKTQRRWFLDKLVDRIGVGYVYDSGSVSDYRLSEIKPLHNFLTQLQPFLKLKQKQANLVLKIIWRLPSAKESPDKFLEVCTWVDQIAALNDSKTRKTTSETVRAVLDSLSEKKKSSP", "values": [{"measurement": "cleavage of the RAG1.10 target, yeast screening assay (OH2)", "setting": "[4]", "result": "They have a strong cleavage activity toward the RAG1.10 target equivalent to the M2/M3 heterodimer activity, while they display almost non detectable homodimeric activities."}]}, {"protein": "M2 K7E K96E (protein) MNTKYNEEFLLYLAGFVDGDGSIIAQIKPRQSNKFKHQLSLAFAVTQKTQRRWFLDKLVDEIGVGYVYDSGSVSDYRLSEIKPLHNFLTQLQPFLELKQKQANLVLKIIWRLPSAKESPDKFLEVCTWVDQIAALNDSKTRKTTSETVRAVLDSLSEKKKSSP", "values": [{"measurement": "cleavage of the RAG1.10 target, yeast screening assay (OH3)", "setting": "[5]", "result": "They have a strong cleavage activity toward the RAG1.10 target equivalent to the M2/M3 heterodimer activity, while they display almost non detectable homodimeric activities."}]}, {"protein": "M2 E8K K96E (protein) MNTKYNKKFLLYLAGFVDGDGSIIAQIKPRQSNKFKHQLSLAFAVTQKTQRRWFLDKLVDEIGVGYVYDSGSVSDYRLSEIKPLHNFLTQLQPFLELKQKQANLVLKIIWRLPSAKESPDKFLEVCTWVDQIAALNDSKTRKTTSETVRAVLDSLSEKKKSSP", "values": [{"measurement": "cleavage of the RAG1.10 target, yeast screening assay (OH4)", "setting": "[6]", "result": "They have a strong cleavage activity toward the RAG1.10 target equivalent to the M2/M3 heterodimer activity, while they display almost non detectable homodimeric activities."}]}, {"protein": "QAN-A1 (QAN with the A1 interface: K7R, E8R, E61R, K96R, L97F; Phe kept at position 54) (enzyme, Purified by His tag when expressed alone) MNTKYNRRFLLYLAGFVDGDGSIIAQIKPNQSYKFKHQLSLAFQVTQKTQRRWFLDKLVDRIGVGYVADNGSVSNYILSEIKPLHNFLTQLQPFLRFKQKQANLVLKIIWRLPSAKESPDKFLEVCTWVDQIAALNDSKTRKTTSETVRAVLDSLSEKKKSSP", "values": [{"measurement": "binding result", "setting": "[1]", "result": "no binding"}, {"measurement": "in vitro cleavage of linearized plasmid DNA targets (agarose gel)", "setting": "[7]", "result": "specific cleavage of the heterodimer, but at reduced level compared to the KTG-A2/QAN-B3 combination"}]}, {"protein": "KTG-B3 (KTG with the B3 interface: K7E, F54G, L58M, K96E) (enzyme, Purified by His tag when expressed alone) MNTKYNEEFLLYLAGFVDGDGSIIAQIKPNQSYKFKHQLSLAFKVTQKTQRRWGLDKMVDEIGVGYVTDGGSVSNYILSEIKPLHNFLTQLQPFLELKQKQANLVLKIIWRLPSAKESPDKFLEVCTWVDQIAALNDSKTRKTTSETVRAVLDSLSEKKKSSP", "values": [{"measurement": "binding result", "setting": "[1]", "result": "no binding"}]}, {"protein": "R51D RAG1.10.2 cutter (M2 R51D) (protein) MNTKYNKEFLLYLAGFVDGDGSIIAQIKPRQSNKFKHQLSLAFAVTQKTQDRWFLDKLVDEIGVGYVYDSGSVSDYRLSEIKPLHNFLTQLQPFLKLKQKQANLVLKIIWRLPSAKESPDKFLEVCTWVDQIAALNDSKTRKTTSETVRAVLDSLSEKKKSSP", "values": [{"measurement": "cleavage of the palindromic RAG1.10.2 target, direct repeat recombination (LacZ) assay in yeast", "result": "no cleavage of the RAG1.10.2 and RAG1.10.3 targets was visible"}, {"measurement": "cleavage of the RAG1.10 target, direct repeat recombination (LacZ) assay in yeast", "setting": "[8]", "result": "resulted in an efficient cleavage of the RAG1.10 target while no cleavage of the RAG1.10.2 and RAG1.10.3 targets was visible"}]}, {"protein": "D137R RAG1.10.3 cutter (M3 D137R) (protein) MNTKYNKEFLLYLAGFVDGDGSIIAQINPNQSSKFKHRLRLAFYVTQKTQRRWFLDKLVDEIGVGYVRDSGSVSQYVLSEIKPLHNFLTQLQPFLKLKQKQANLVLKIIWRLPSAKESPDKFLEVCTWVDQIAALNRSKTRKTTSETVRAVLDSLSEKKKSSP", "values": [{"measurement": "cleavage of the palindromic RAG1.10.3 target, direct repeat recombination (LacZ) assay in yeast", "result": "no cleavage of the RAG1.10.2 and RAG1.10.3 targets was visible"}]}, {"protein": "D137R RAG1.10.2 cutter (M2 D137R) (protein) MNTKYNKEFLLYLAGFVDGDGSIIAQIKPRQSNKFKHQLSLAFAVTQKTQRRWFLDKLVDEIGVGYVYDSGSVSDYRLSEIKPLHNFLTQLQPFLKLKQKQANLVLKIIWRLPSAKESPDKFLEVCTWVDQIAALNRSKTRKTTSETVRAVLDSLSEKKKSSP", "values": [{"measurement": "cleavage of the RAG1.10 target, direct repeat recombination (LacZ) assay in yeast", "setting": "[9]", "result": "leads also to the formation of an obligatory heterodimer, which is yet less active than the precedent one on the RAG1.10 target"}]}, {"protein": "QAN-B4 (QAN with the B4 interface: B3 mutations K7E, F54G, L58M, K96E plus Glycine at position 97) (enzyme, Purified by His tag when expressed alone) MANTKYNEEFLLYLAGFVDGDGSIIAQIKPNQSYKFKHQLSLTFQVTQKTQRRWGLDKMVDEIGVGYVADNGSVSNYILSEIKPLHNFLTQLQPFLEGKQKQANLVLKIIEQLPSAKESPDKFLEVCTWVDQIAALNDSKTRKTTSETVRAVLDSLSEKKKSSPAAALEHHHHHH", "values": [{"measurement": "binding result", "setting": "[1]", "result": "no binding"}]}]}
